Measured values: paper doi:10.1101/497024

Biological target: HeV PNT3 (aa 200-310 of the Hendra virus P/V protein) (Hendra virus) (UniProt O55778)
Assay: SAXS

## HeV PNT3 (aa 200-310 of the Hendra virus P/V protein) (from UniProt O55778 200-310) (domain or fragment)
  stoichiometry N: 100 monomers
